# Measured values: patent publication US20220204643A1 (published 2022)
# T1: UTP6 small subunit processome component (human, UniProt Q9NYH9 1-597)
# T1 sequence: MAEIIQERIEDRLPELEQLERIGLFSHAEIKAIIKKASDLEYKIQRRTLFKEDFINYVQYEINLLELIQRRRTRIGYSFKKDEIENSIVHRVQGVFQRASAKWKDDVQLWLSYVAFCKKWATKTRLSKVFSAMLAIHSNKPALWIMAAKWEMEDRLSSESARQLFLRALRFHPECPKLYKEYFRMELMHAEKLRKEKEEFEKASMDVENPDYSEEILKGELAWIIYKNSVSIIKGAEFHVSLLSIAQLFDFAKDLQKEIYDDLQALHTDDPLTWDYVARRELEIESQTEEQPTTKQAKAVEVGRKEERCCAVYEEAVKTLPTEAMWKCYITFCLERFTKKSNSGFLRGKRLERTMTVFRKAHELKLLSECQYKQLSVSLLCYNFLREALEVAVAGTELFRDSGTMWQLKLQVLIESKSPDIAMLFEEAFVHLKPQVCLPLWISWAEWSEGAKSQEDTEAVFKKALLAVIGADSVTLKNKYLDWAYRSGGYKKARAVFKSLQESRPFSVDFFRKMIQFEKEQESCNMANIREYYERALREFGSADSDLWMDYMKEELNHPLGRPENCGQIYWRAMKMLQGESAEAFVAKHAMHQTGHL
# T2: phosducin like (human, UniProt Q13371 2-301)
# T2 construct: also called PDCL
# T2 sequence: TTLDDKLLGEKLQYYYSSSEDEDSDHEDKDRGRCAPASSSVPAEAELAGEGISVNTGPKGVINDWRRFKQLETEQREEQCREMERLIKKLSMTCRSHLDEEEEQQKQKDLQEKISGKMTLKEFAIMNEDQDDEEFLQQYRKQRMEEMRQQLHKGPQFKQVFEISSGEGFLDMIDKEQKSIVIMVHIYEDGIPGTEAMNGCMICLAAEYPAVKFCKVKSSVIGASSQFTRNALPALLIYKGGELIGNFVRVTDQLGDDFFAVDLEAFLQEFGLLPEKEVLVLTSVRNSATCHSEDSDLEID
# T3: Dexd-box helicase 52 (human, UniProt Q9Y2R4 1-599)
# T3 construct: also called DDX52
# T3 sequence: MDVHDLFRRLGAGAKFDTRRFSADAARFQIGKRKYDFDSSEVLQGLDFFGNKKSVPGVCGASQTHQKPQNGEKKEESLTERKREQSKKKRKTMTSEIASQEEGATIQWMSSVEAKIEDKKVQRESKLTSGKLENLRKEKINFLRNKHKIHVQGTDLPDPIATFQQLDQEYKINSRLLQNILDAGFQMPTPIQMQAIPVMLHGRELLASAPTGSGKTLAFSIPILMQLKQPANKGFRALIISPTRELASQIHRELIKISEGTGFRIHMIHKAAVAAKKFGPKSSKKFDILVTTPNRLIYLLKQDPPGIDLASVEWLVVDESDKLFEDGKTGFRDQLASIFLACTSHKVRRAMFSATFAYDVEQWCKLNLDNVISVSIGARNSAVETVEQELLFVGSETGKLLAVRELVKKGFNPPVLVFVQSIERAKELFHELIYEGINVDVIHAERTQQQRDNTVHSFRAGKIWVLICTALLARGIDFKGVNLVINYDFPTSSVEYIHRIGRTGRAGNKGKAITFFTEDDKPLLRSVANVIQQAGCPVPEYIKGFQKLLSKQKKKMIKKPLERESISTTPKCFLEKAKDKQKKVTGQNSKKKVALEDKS
# T4: phospholipase C delta 1, transcript variant 2 (human, UniProt P51178 1-756)
# T4 construct: on protein array; also called PLCD1
# T4 sequence: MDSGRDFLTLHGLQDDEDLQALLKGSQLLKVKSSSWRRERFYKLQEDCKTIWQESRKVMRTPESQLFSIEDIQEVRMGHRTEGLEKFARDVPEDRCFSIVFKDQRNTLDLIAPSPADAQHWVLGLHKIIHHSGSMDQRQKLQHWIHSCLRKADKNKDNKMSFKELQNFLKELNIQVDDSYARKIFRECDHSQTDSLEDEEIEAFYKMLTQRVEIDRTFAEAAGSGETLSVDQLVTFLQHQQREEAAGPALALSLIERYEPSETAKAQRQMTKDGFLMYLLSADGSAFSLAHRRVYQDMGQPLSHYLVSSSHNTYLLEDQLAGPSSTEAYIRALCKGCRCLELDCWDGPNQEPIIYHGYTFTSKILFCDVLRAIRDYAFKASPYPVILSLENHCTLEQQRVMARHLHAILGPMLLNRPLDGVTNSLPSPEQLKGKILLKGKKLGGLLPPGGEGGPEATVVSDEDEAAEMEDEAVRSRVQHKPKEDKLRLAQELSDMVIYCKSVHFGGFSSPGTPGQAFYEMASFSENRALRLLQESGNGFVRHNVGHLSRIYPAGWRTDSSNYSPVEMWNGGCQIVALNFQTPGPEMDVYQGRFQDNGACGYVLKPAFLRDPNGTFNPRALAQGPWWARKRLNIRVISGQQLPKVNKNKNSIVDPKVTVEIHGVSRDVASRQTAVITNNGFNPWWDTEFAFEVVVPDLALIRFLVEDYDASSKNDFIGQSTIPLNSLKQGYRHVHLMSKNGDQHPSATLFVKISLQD
# T5: zinc finger protein 326, transcript variant 1 (human, UniProt Q5BKZ1 1-582)
# T5 construct: on protein array; also called ZNF326
# T5 sequence: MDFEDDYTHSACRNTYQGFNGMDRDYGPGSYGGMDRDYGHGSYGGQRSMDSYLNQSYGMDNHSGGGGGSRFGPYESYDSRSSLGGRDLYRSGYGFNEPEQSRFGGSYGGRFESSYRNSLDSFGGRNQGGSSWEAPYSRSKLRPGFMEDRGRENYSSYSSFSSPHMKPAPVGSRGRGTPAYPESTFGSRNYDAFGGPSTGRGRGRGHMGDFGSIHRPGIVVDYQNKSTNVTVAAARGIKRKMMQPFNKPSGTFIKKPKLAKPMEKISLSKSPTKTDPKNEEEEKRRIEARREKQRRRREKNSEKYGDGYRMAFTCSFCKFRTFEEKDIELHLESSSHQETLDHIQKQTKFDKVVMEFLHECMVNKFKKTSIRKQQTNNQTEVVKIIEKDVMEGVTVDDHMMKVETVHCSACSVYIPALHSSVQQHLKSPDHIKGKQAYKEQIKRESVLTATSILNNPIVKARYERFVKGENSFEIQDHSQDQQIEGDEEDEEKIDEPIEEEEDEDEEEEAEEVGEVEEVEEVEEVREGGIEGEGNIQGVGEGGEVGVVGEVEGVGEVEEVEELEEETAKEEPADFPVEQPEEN
# T6: G antigen 2A (human, UniProt Q6NT46 1-116)
# T6 construct: also called GAGE2A
# T6 sequence: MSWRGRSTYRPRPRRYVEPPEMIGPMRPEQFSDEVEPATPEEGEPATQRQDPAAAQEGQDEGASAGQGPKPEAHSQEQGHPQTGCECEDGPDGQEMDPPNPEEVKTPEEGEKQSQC
# T7: JPX transcript, XIST activator (human)
# T7 construct: on protein array
# T7 chain: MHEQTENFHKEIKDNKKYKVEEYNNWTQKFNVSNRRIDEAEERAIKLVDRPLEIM
# T8: LN608403.1_frag (human)
# T8 construct: on protein array
# T8 chain: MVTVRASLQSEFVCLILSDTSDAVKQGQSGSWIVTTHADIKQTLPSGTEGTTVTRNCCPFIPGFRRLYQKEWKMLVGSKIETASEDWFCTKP
# B1: TUCE1005 (antibody, V domains shown)
# VH: QVQLQESGPGLVKPSETLSLTCTVSGGSISSYYWSWIRQPAGKGLEWIGRIYTSGSTNYNPSLKSRVTMSVDTSKNQFSLKMSSVTAADTAVYYCARGELLFDHWGQGTLVTVSS
# VL: not shown
# B2: TTES1007 (antibody, V domains shown)
# VH: QITLKESGPTLVKPTQTLTLTCTFSGFSLTTTGVGVGWIRQPPGKALEWLALIYWDDDKRYSPSLKSRLIITKDTSKNQVVLTMTNMDPVDTATYYCAHRFGRGVSYYYYGMDVWGQGTTVTVSS
# VL: not shown
# B3: TTES1009 (antibody, V domains shown)
# VH: EVQLVESGGGLVQPGGSLRLSCAASGFTFSSYEMNWVRQAPGKGLEWVSYISSSGSTIYYADSVKGRFTISRDNAKNSLYLQMNSLRAEDTAVYYCARRGFYYYYGMDVWGQGTTVTVSS
# VL: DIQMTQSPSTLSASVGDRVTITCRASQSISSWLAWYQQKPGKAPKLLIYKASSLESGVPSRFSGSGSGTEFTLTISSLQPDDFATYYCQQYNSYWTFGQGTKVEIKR
# B4: TTHY1003 (antibody, V domains shown)
# VH: QVQLVQSGAEMKKPGTSVKVSCRTSGYIFTGSFMHWVRQAPAQGLEWMGWINPKTGATYYTEKFKGRVTLTRDTSINTAYMEMTSLRSDDTAVYYCARGFCDLPACYPVPQYNWFDPWGQGTLVTVSS
# VL: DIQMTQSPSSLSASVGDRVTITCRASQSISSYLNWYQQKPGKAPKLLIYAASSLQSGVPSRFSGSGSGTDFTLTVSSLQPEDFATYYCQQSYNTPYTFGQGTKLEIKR
# B5: TTHY1004 (antibody, V domains shown)
# VH: PVQLQESGPGLVKPSQTLSLTCTVSGGSISSGTYYWSWIRQPAGKGLEWIGRIYASGSTNYNPSLKSRVTISVDTSKNQFSLKLTSVTAADTAVYYCARYSGSYPLGFDYWGQGTLVTVSS
# VL: DIQMTQSPSSLSASVGDRVTITCRASQSISTYLNWYQQKPGMAPKLLIYAASTLQSGVPSRFSGSGSATDYTLTISSLQPEDFATYYCQQSYNTPLTFGGGTKVDIKR
# B6: TTES1008 (antibody, V domains shown)
# VH: QVQLVESGGGVVQPGRSLRLSCAASGFIFSSYGMHWVRQAPGKGLEWVAVISYDGSNKYYADSVKGRFTISRDKSKNTLHLQMNSLRAEDTAVYYCAKDSGSNDDMDVWGKGTTVTVSS
# VL: QSVLTQPPSVSAAPGQKVTISCSGSSSNIGNNYVSWYQQLPGTAPKLLIYDNNKRPSGIPDRFSGSKSGTSATLGITGLQTGDEADYYCGTWDSSLSAGVFGTGTKVTVLG
# B7: TBRE1039 (antibody, V domains shown)
# VH: PVQLVQSGAEVKKPGSSVKVSCKASGGTFSSYAISWVRQAPGQGLEWMGGIIPIFGTANYAQKFQGRVTITADESTSTAYMELSSLRSEDTAVYYCARENWNSAGTTEWFDPWGQGTLVTVSS
# VL: PYVLTQPPSVSVAPGKTARITCGGNNIGSKSVHWYQQKPGQAPVLVIYYDSDRPSGIPERFSGSNSGNTATLTISRVEAGDEADYYCQVWDSSSDHYVVFGGGTKLTVLG
# notes: VH/VL only
# B8: TTES1012 (antibody, V domains shown)
# VH: EVQLVESGGGLVQPGGSLRLSCAASGFTFSSYWMTWVRQAPGKGLEWVANIKQDGSEKYYVDSVKGRFTISRDNSKNSLYLQMNSLRAEDTAVYYCARAGYDLFGWFDPWGQGTLVTVSS
# VL: SYELTQPPSVSVSPGQTARITCSGDALPKQYAYWYQQKPGQAPVLVIYKDSERPSGIPERFSGSSSGTTVTLTISGVQAEDEADYYCQSADSSGTYVFGTGTKVTVLG
# B9: TTHY1002 (antibody, V domains shown)
# VH: EVQVVESGGGLGQPGGSLRLSCAASGFTFSSYSMNWVRQAPGKGLEWVSYISSSSSTKYYADSVKGRFTISRDNAKKSLYLQMNSLRDEDTAVYYCASPVRPWGQGTLVTVSS
# VL: EIVMTQSPATLSVSPGERATLSCRASQSVSSNLAWYQQKPGQAPRLLIYGASTRATGIPARFSGSGSGTEFTLTISSLQSEDFAIYYCQQYNSWPAFGGGTKVEIK
# B10: TBRE1045 (antibody, V domains shown)
# VH: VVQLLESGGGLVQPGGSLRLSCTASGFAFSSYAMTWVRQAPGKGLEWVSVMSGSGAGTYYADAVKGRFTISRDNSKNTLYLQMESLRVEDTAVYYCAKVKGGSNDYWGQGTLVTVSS
# VL: PYVLTQPPSVSVAPGQTARITCGGNNIGSKSVHWYQQKPGQAPVMVVYADRERPSGIPERLSGSNFGNTATLTISRVEAGDEADYYCQVWDSNNDHREVFGGGTKLTVLG
# notes: VH/VL only
# Assays:
# [1] = target: T1, UTP6 small subunit processome component
# phosducin like = target: T2, phosducin like
# [2] = target: T9, aarF domain containing kinase 5 (human, UniProt Q3MIX3 1-580)
# T9 construct: also called ADCK5
# [3] = target: BAF chromatin remodeling complex subunit BCL7C, transcript variant 2 (human, UniProt Q8WUZ0 1-217)
# cancer/testis antigen 1A = target: T10, cancer/testis antigen 1A (human, UniProt P78358 1-180)
# T10 construct: also called CTAG1A
# [4] = target: T11, G protein-coupled receptor 4 (human, UniProt P46093 1-362)
# T11 construct: also called GPR4
# Dexd-box helicase 52 = target: T3, Dexd-box helicase 52
# [5] = target: T12, PNMA family member 5, transcript variant 2 (human, UniProt Q96PV4 1-448); experiment: protein array
# T12 construct: on protein array; also called PNMA5
# [6] = target: T4, phospholipase C delta 1, transcript …; experiment: protein array
# [7] = target: T5, zinc finger protein 326, transcript …; experiment: protein array
# G antigen 2A = target: T6, G antigen 2A
# [8] = target: T13, proliferating cell nuclear antigen, transcript variant 1 (human, UniProt P12004 1-261)
# T13 construct: also called PCNA
# [9] = target: T7, JPX transcript, XIST activator; experiment: protein array
# LN608403.1_frag = target: T8, LN608403.1_frag; experiment: protein array
# T13 sequence (P12004 whole entry, change not shown): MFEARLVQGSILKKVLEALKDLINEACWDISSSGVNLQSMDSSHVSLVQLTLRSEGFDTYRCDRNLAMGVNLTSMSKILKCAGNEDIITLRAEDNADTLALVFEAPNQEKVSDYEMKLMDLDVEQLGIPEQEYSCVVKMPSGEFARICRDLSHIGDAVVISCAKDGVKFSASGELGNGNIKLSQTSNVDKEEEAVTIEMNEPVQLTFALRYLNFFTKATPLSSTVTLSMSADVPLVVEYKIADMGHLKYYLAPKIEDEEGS
# T12 sequence (Q96PV4 other isoform, or with tags, fused parts or gaps mutant limits assumed): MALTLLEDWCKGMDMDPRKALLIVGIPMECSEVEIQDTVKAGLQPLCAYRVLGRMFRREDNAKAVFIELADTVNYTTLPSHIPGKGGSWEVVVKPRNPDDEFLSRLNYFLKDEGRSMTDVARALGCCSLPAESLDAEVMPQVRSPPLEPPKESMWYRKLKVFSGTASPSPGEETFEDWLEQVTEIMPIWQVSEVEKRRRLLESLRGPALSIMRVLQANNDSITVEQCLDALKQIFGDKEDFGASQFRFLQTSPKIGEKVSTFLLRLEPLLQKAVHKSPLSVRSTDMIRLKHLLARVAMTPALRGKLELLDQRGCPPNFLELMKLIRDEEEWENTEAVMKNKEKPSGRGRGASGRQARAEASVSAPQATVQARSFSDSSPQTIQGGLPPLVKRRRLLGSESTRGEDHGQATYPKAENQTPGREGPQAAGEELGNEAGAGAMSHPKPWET
# T10 sequence (P78358 whole entry): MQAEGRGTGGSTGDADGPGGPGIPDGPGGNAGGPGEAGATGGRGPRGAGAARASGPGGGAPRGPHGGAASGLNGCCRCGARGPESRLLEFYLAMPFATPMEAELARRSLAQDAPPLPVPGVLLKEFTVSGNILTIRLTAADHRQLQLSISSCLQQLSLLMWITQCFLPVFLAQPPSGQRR
# T11 sequence (P46093 whole entry): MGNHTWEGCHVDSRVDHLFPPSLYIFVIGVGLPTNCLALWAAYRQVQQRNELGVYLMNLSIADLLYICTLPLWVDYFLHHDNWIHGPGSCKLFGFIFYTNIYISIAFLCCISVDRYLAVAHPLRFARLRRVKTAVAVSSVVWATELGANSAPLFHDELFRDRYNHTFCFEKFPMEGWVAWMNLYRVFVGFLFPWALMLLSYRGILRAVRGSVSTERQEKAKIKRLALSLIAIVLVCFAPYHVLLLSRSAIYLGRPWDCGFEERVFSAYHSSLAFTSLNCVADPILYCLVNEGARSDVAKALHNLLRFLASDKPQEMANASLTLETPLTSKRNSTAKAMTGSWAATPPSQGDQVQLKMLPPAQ
# T9 sequence (Q3MIX3 other isoform, or with tags, fused parts or gaps limits assumed): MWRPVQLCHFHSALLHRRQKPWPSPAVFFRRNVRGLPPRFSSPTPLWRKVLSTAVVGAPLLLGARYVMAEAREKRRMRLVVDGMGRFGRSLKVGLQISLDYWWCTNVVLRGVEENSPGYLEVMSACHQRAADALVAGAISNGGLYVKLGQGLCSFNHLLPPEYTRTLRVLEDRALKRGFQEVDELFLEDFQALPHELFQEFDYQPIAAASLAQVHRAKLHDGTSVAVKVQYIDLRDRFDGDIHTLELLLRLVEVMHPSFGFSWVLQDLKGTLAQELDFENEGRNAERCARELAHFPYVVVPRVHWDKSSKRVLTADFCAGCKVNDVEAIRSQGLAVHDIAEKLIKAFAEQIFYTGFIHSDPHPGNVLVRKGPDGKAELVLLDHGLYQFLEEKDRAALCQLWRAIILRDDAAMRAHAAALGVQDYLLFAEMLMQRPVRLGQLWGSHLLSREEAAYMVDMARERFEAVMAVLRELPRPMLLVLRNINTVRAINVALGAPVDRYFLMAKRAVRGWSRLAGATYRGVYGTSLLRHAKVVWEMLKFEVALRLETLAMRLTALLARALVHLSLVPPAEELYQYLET
binder,measurement,setting,value
B1,binding result,[1],binds
B2,binding result,phosducin like,binds
B3,binding result,[2],binds
B4,binding result,[3],binds
B5,binding result,cancer/testis antigen 1A,binds
B6,binding result,[4],binds
same,binding result,Dexd-box helicase 52,binds
B7,binding result,[5],binds
same,binding result,[6],binds
same,binding result,[7],binds
B8,binding result,G antigen 2A,binds
B9,binding result,[8],binds
B10,binding result,[9],binds
same,binding result,LN608403.1_frag,binds
